Target: T1, Rae1 (NTE-deleted), chain of the crystallized heterotrimer (mouse, UniProt Q8C570 24-368)
T1 sequence (looked up): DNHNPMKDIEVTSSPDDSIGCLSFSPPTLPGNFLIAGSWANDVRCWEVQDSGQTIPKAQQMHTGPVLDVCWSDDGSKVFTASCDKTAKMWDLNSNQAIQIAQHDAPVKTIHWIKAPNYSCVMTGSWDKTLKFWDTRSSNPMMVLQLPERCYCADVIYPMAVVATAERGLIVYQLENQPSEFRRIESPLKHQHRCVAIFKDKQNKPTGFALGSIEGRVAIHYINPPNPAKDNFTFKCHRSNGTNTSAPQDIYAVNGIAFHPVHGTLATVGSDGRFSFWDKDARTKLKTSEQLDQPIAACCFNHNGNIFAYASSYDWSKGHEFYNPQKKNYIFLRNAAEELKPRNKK
Test: crystal structure

- binding result: binds
B1: Nup98 GLEBS region, chain of the crystallized heterotrimer (domain or fragment)
chain: not shown

Source: article PMC7604486 (Proceedings of the National Academy of Sciences of the …, 2020)
